Test results reported in the supplement of paper PMC10567573.

B1: IQUB (parent)
chain: KIREKEEWIKLDYHRRHNPKTNED

Variants of: B1
Experiment: protein stability index of a GFP-peptide fusion (GPS, HEK-293T) (PSI 1-6); higher = more stable
Settings: c terminus: a fixed tail appended
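Further: lentivirally expressed fusions sorted by FACS into six bins by GFP to DsRed ratio, PSI derived from sequencing read proportions per bin multiplied by bin number.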

Protein stability index of substitutions, site by site:
K1: I 4.02 | P 4.99 | T 4.87 | N 5.44 | D 4.99 | R 4.68 | H 4.62 | S 4.62 | L 4.15 | G 5.15 | C 4.07 | Y 2.98 | F 2.67 | E 4.62 | A 4.79 | W 3.75 | V 4.52 | Q 4.96 | M 4.14
R15: M 4.3 | P 4.17 | T 4.76 | L 4.49 | K 4.64 | W 4.16 | F 4.23 | Q 3.98 | Y 4.08 | E 4.46 | S 5.22 | C 3.89 | H 4.36 | D 5.33 | N 4.39 | I 4.29 | A 5.05 | V 4.97 | G 4.83
L11: A 4.77 | E 4.32 | T 5.2 | K 4.71 | D 4.93 | S 5.23 | I 3.78 | H 4.66 | W 4.13 | Q 5.37 | C 4.52 | P 4.78 | Y 4.81 | R 5.29 | G 4.64 | N 5.15 | V 4.55 | M 4.71 | F 4.33
N18: P 4.89 | D 4.86 | G 4.93 | C 3.99 | F 4 | E 4.48 | T 4.27 | S 4.91 | L 3.79 | I 4.19 | H 4.27 | Q 3.97 | A 4.32 | K 4.46 | R 4.31 | M 4.42
K10: R 4.92 | Q 4.74 | F 4.68 | V 4.2 | L 4.04 | I 4.16 | G 4.9 | W 3.17 | D 4.99 | A 4.65 | P 5.26 | H 4.56 | N 4.48 | S 4.68 | E 5.3 | T 4.97 | C 4.15 | M 4.67 | Y 4.31
E6: P 3.58 | S 4.03 | Y 2.88 | L 2.7 | Q 4.47 | H 3.98 | R 4.66 | G 3.96 | V 3.63 | K 3.98 | T 4.41 | A 3.32 | C 4.35 | N 4.52 | M 3.69 | F 3.56 | W 2.61 | D 4.31
D12: S 3.59 | I 3.28 | Q 4.55 | G 4.51 | M 3.7 | T 3.79 | R 4.21 | L 3.79 | K 4.54 | P 4.41 | V 3.65 | A 4.07 | N 3.92 | H 4.41 | C 3.93 | W 3.79 | Y 3.62 | E 4.27 | F 4.01
E4: A 4.38 | W 3.75 | C 3.71 | I 4 | M 4.06 | T 4 | H 4.32 | R 3.99 | Q 3.82 | P 4.02 | F 3.84 | Y 4.03 | N 4.67 | S 3.95 | V 3.32 | L 3.81 | K 3.86 | D 4.48 | G 3.85
R16: T 4.94 | Q 5.08 | A 4.54 | P 4.75 | C 4.52 | N 4.91 | K 3.6 | M 4.63 | W 4.22 | Y 4.31 | H 4.4 | G 4.74 | E 5.2 | I 4.38 | V 3.62 | D 3.61 | S 5.12 | F 3.7 | L 3.86
I9: Y 4.73 | V 4.86 | Q 5.24 | M 4.75 | N 5.07 | K 5.13 | T 5.1 | G 5.35 | L 4.66 | P 4.94 | C 4.12 | D 5.22 | S 4.62 | H 4.45 | E 5.25 | A 5.24 | F 3.96
I2: H 4.91 | F 4.19 | L 4.74 | T 4.69 | D 5.17 | M 4.72 | K 4.8 | R 4.58 | C 4.62 | V 4.67 | A 4.88 | G 5.25 | E 5.32 | N 5 | Q 4.14 | P 3.84 | Y 4.2 | W 4.26 | S 5.09
R3: E 5.08 | S 4.6 | T 4.61 | F 4.3 | D 5.34 | I 4.35 | P 4.97 | V 4.52 | N 4.72 | M 4.02 | L 4.22 | H 4.67 | C 4.8 | W 4.21 | A 5.05 | Q 4.6 | G 5.16 | Y 4.29 | K 4.67
Y13: A 4.36 | W 4.18 | Q 5.04 | C 4.33 | V 4.64 | F 4.51 | E 5.18 | I 3.95 | M 4.76 | K 5.3 | H 4.87 | P 4.51 | L 4.8 | S 5.11 | D 5.04 | R 5.28 | N 5.41 | T 4.49 | G 4.99
E7: I 3.36 | R 3.51 | N 4.45 | F 3.34 | C 4.61 | T 4.37 | Q 4.19 | P 3.6 | D 4.48 | K 4.03 | Y 3.31 | L 2.68 | A 4.74 | W 3.46 | G 3.8 | V 3.99 | S 4.46 | M 3.27 | H 4.34
K5: T 4.21 | D 4.51 | S 4.14 | R 4.64 | Y 3.92 | P 4.63 | H 4.51 | I 2.39 | W 3.74 | L 3.13 | F 3.67 | N 4.7 | G 4.6 | C 4.09 | M 3.04 | Q 4.93 | V 3.4 | A 3.99 | E 4.45
H14: G 4.88 | R 4.58 | N 4.89 | E 3.72 | D 5.35 | S 4.61 | F 4.34 | P 4.51 | Q 5.02 | Y 4.41 | K 3.87 | A 4.8 | V 4.24 | C 4.46 | W 3.73 | T 4.5 | I 4.58 | L 4.1
W8: Y 5.13 | G 5.54 | Q 5.58 | V 5.07 | M 5.1 | A 5.18 | L 4.94 | S 5.41 | K 5.19 | E 4.69 | I 4.24 | R 4.91 | T 5.19 | D 5.13 | P 5.25 | F 4.24 | C 4.93 | H 4.99 | N 5.03
H17: C 4.16 | A 4.71 | Q 5.08 | K 4.23 | I 4.5 | F 4.41 | V 4.87 | E 4.11 | G 4.97 | Y 3.99 | T 4.57 | N 4.16 | P 5.17 | M 4.21 | L 4.67 | S 4.83 | R 4.51 | D 5.08
